Measurements from patent US20080118508A1 (published 2008).

Target: T1, human C5a receptor (C5aR) on purified human neutrophils (human, UniProt P21730 1-350)
T1 construct: whole, on cells
T1 sequence (looked up): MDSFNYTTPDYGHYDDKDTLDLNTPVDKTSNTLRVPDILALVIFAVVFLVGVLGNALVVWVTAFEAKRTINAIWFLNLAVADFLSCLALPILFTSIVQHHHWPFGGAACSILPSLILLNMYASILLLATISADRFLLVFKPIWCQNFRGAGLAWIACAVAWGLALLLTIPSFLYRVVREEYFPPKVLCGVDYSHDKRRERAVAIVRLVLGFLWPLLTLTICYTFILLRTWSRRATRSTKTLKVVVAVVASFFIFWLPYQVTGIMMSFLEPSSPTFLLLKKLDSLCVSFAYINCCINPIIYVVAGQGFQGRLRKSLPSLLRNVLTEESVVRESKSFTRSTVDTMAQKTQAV
Test: displacement of 125I-C5a from purified human neutrophils by unlabeled recombinant human C5a
Protocol: MAb137-26 was serially diluted in 1.5 ml Eppendorf centrifuged tubes with a binding buffer (1% BSA in RPMI1640 medium) to give final concentrations ranging from 640 nM to 0.04 nM. […] Purified recombinant human C5a (Sigma, St. Louis, Mo. was used as positive control, whereas an isotype-matched irrelevant monoclonal antibody was used as negative control. For the maximum binding of ¹²⁵I-C5a, 36 μl of the binding buffer without the antibodies or C5a was used instead. Fifty microliters of the neutrophil suspension was added to each tube for incubation on ice. At the end of the 40-minute incubation period, the mixture from each tube was transferred to the top of 800 μl of a separation buffer (6% BSA in PBS) in another Eppendorf tube. The tubes were than centrifuged at 2000×g for 3 minutes at room temperature. After the supernatant was aspirated, the cell pellet was re-suspended in 0.5 ml of de-ionized water to lyse the cells. The cell lysate was then mixed with 3 ml of Ultima Gold scintillation fluid (Packard Instrument, Meriden, Conn.) for radioactive counting. The percent inhibition of ¹²⁵I-C5a binding is defined as: [Cpmₘₐₓ−Cpmbkg]−[Cpmca−Cpmbkg]/[Cpmₘₐₓ−Cpmbkg]×100 where: Cpmₘₐₓ=maximum count per minute without competing agents; Cpmbkg=background cpm without addition of ¹²⁵I-C5a; and Cpmca=cpm with competing agents.

- IC50: 30 nM
B1: human C5a (ligand, UniProt P01031 678-751, looked up)
chain: TLQKKIEEIAAKYKHSVVKKCCYDGACVNNDETCEQRAARISLGPRCIKAFTECCVVASQLRANISHKDMQLGR
notes: domain: C5a; Bought recombinant protein; also called recombinant C5a (Sigma); purified recombinant human C5a
